# B1: Golgi phosphoprotein 3 (Homo sapiens), Q9H4A6 (parent)
# chain: MTSLTQRSSGLVQRRTEASRNAADKERAAGGGAGSSEDDAQSRRDEQDDDDKGDSKETRLTLMEEVLLLGLKDREGYTSFWNDCISSGLRGCMLIELALRGRLQLEACGMRRKSLLTRKVICKSDAPTGDVLLDEALKHVKETQPPETVQNWIELLSGETWNPLKLHYQLRNVRERLAKNLVEKGVLTTEKQNFLLFDMTTHPLTNNNIKQRLIKKVQEAVLDKWVNDPHRMDRRLLALIYLAHASDVLENAFAPLLDEQYDLATKRVRQLLDLDPEVECLKANTNEVLWAVVAAFTK
# Variants of: B1
# Details: with my18a_human MYO18A
row,effect of a mutation on the interaction,Variant
1,increasing interaction strength,T143E;T148E
2,increasing interaction strength,T143D;T148D

# From IntAct's records for PubMed 24485452
